Laboratory results reported in article PMC5526462 (Biochemistry, 2017).
Like-named read-outs stand apart in the source and are kept apart here. Values belong to the molecule of their own block, whether it stands above or below them.

B3: Methylobacterium extorquens PqqD (MePqqD), truncation of the natural MePqqCD fusion (domain or fragment)
chain: MEPTAFSGSDVPRLPRGVRLRFDEVRNKHVLLAPERTFDLDDNAVAVLKLVDGRNTVSQIAQILGQTYDADPAIIEADILPMLAGLAQKRVLER

Tests used:
[1] = target: PqqE (Methylorubrum extorquens) (UniProt B7KXC6); settings: cited from earlier work
[2] = target: PqqE (Methylorubrum extorquens) (UniProt B7KXC6); settings: cited from earlier work; remark: listed apart in the source
[3] = target: PqqD (Methylorubrum extorquens) (UniProt Q49148); settings: cited from earlier work
[4] = target: B3; assay: NMR titration
[5] = target: T1, Methylobacterium extorquens PqqE (His6-MePqqE) (Methylobacterium extorquens, UniProt P71517 1-384); assay: NMR titration
T1 sequence (looked up): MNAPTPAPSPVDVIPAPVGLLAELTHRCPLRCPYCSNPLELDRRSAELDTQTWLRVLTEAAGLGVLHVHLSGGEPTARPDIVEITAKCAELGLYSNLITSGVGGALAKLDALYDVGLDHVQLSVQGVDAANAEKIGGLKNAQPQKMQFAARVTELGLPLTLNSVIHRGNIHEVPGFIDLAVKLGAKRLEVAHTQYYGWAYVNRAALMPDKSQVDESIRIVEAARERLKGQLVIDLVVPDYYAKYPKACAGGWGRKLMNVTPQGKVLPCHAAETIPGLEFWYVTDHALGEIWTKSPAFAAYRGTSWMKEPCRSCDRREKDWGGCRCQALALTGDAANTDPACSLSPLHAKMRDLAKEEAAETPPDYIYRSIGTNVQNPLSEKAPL

Chain of PqqD (Methylorubrum extorquens) (Q49148 whole entry): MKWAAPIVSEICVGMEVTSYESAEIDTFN

Molecule: PqqD-PqqA complex (from UniProt Q49148)
Kd [1]: 5 µM

Molecule: PqqD (from UniProt Q49148)
Kd [2]: 12 µM

Molecule: PqqA (from UniProt Q49148)
Kd [3]: 0.2 µM

binding result [4]: binds
B1: MePqqA precursor peptide (without the N-terminal methionine, cysteine 11 changed to serine) (peptide)
peptide: KWAAPIVSEISVGMEVTSYESAEIDTFN

binding result [5]: binds
B2: MePqqD + MePqqA binary complex (complex, Methylobacterium extorquens)
chain: MEPTAFSGSDVPRLPRGVRLRFDEVRNKHVLLAPERTFDLDDNAVAVLKLVDGRNTVSQIAQILGQTYDADPAIIEADILPMLAGLAQKRVLER
peptide: KWAAPIVSEISVGMEVTSYESAEIDTFN

Molecule: B3
binding result [5]: binds
